Assay results published in publication PMC10907282 (Proceedings of the National Academy of Sciences of the …, 2024).

Target: purified SOS3 (Arabidopsis thaliana, UniProt O81223 1-222)
Assay: other fluorescence titration

purified SOS3, sequence (O81223 whole entry): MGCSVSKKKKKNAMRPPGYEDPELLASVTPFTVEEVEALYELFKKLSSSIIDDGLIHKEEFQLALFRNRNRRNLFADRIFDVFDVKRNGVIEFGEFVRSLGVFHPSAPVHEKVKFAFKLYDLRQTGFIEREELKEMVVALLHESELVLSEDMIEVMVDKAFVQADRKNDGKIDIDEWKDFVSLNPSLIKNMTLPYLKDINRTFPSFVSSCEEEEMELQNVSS

B1: synthetic peptide spanning the S3BD of SOS1, residues K460 to D484 (peptide, UniProt Q9LKW9 460-484, looked up)
peptide: KKRILEYTKYEMLNKALRAFQDLGD
- binding result: binds
